Reference: patent publication US20090048117A1 (Harvard, published 2009)
Each block holds one binder with its values, some of them ahead of it.

How the values were obtained:
[1] = target: T1, NFAT4 expressed from an expression construct; assay: cell-based or functional assay
T1 sequence (Q12968 2-1075, species assumed, looked up): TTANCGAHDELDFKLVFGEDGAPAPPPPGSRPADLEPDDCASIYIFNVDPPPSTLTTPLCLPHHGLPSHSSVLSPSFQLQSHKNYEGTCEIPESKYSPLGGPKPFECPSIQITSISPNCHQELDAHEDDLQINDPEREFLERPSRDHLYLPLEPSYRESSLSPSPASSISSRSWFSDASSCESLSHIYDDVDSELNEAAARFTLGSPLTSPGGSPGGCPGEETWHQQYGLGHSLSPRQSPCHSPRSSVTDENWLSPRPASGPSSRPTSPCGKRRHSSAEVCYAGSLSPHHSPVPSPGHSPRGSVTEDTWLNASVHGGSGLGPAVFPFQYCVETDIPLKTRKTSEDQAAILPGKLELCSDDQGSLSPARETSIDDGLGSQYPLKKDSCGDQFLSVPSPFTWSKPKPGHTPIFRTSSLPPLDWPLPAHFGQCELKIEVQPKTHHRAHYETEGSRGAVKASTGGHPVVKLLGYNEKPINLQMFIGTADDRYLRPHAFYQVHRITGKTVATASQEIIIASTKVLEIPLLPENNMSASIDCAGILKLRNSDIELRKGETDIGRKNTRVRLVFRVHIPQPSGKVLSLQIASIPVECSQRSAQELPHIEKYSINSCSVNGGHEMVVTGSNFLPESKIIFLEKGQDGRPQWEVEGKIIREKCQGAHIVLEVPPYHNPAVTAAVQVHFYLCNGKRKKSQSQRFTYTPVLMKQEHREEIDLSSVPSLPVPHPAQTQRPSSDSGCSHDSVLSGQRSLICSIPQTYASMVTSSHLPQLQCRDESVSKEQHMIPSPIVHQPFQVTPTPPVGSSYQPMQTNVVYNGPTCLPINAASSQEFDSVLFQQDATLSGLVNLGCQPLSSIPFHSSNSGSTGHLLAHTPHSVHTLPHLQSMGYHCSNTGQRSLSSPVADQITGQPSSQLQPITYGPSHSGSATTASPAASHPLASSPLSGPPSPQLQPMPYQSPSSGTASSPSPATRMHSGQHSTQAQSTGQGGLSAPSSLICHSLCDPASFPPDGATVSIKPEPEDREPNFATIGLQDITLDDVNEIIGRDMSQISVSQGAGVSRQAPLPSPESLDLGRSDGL

[2] = target: T2, NFAT3 expressed from an expression construct; assay: cell-based or functional assay
T2 sequence (Q14934 1-902, species assumed, looked up): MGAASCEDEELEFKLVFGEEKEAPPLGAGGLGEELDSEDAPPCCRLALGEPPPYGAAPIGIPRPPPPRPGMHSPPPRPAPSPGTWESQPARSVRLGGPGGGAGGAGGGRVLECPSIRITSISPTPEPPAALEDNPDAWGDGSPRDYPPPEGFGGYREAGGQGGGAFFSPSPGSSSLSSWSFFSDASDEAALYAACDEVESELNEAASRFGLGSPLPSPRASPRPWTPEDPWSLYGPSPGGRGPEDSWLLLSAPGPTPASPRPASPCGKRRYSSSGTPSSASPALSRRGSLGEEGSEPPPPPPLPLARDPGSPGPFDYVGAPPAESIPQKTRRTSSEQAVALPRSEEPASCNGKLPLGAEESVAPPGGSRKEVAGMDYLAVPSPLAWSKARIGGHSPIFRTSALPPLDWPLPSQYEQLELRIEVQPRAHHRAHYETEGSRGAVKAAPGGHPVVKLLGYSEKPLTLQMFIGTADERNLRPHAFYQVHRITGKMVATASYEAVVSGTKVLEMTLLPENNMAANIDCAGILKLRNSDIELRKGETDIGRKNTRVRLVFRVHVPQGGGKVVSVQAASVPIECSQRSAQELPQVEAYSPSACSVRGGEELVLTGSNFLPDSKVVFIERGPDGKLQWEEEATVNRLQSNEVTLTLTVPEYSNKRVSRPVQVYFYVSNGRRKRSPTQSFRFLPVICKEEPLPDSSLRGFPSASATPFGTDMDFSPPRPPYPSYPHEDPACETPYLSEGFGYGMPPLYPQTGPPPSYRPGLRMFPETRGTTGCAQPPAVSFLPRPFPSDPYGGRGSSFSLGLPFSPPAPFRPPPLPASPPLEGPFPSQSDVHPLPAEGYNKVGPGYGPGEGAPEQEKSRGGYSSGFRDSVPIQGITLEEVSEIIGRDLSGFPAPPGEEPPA

[3] = target: T3, NFATc expressed from an expression construct; assay: cell-based or functional assay
T3 sequence (O95644 1-943, species assumed, looked up): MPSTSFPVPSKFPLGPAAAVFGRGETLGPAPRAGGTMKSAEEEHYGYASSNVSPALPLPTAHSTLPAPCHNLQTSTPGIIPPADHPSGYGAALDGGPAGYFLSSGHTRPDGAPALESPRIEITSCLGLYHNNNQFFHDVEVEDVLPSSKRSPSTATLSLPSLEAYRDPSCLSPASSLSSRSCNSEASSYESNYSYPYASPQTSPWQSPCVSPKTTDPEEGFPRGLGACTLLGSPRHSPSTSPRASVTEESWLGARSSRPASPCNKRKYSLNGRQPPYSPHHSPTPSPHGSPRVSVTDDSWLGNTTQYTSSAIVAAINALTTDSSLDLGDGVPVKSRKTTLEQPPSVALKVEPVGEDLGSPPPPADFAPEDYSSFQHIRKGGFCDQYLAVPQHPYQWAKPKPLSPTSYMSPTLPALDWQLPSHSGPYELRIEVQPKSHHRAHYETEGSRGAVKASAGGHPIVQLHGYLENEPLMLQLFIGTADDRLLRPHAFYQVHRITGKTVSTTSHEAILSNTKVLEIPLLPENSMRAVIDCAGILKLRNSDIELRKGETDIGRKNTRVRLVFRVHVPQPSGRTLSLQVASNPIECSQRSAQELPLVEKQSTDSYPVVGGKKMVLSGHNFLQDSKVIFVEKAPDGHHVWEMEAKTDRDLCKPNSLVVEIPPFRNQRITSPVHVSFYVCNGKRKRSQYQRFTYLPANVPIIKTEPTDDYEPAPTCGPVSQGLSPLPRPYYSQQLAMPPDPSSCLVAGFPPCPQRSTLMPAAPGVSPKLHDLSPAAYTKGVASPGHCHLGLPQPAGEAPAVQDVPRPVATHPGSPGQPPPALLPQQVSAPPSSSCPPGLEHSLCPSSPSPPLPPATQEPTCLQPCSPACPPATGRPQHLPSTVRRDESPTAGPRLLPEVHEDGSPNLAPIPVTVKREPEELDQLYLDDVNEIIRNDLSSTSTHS

[4] = target: T4, CARM1 of Jurkat cell lysates (human, UniProt Q86X55 2-608, limits assumed); assay: GST pull-down of Jurkat cell lysates, immunoblot with a polyclonal CARM1 antibody
T4 sequence (looked up): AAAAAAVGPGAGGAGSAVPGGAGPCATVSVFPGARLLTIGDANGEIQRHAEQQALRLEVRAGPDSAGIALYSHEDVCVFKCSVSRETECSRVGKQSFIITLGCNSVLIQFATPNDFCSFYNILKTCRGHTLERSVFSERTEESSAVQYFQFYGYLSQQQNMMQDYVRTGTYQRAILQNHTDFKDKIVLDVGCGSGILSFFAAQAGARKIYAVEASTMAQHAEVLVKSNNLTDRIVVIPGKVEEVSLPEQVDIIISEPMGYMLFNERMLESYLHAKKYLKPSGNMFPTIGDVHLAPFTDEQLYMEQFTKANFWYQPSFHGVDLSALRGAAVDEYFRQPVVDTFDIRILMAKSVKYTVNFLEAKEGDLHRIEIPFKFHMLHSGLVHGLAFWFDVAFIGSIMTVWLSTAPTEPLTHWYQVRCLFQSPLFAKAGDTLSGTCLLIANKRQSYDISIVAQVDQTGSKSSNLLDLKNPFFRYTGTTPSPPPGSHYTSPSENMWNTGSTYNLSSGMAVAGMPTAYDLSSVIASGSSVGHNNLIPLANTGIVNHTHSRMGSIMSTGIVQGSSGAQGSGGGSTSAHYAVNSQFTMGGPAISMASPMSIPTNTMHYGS
Procedure: FIGS. 16A-16C depict the interaction of NIP45 and PRMT. (A) Jurkat cell lysates were used in pulldown assays with 25 μg of recombinant GST, GST-NIP45, and GST-ΔN-NIP45. The presence of PRMT1 or CARM1 in pulldown samples was determined by immunoblotting with a monoclonal PRMT1 antibody and a polyclonal CARM1 antibody. PVDF membranes were reprobed with anti-GST antibodies to determine equal amount of recombinant proteins in pulldown samples. (B) Flag-NIP45or Flag-ΔN-NIP45 or vector control and HA-PRMT1 expression constructs were transfected in 293 cells. Lysates were immunoprecipitated with anti-Flag agarose and interaction with PRMT1 was determined by probing immunoblots with a monoclonal anti-HA antibody. Equal loading was assessed by probing with an anti-Flag antibody. (C) Lysates from unstimulated or 60 min PMA/ionomycin stimulated day 7 Th1 or Th2 differentiation cultures were immunoprecipitated with a monoclonal PRMT1 antibody or appropriate isotype control. Interaction with endogenous NIP45 was determined by immunoblotting PRMT1 antibody to determine equal loading.
Because PRMT1 methylates NIP45, their interaction was examined more closely. To determine specificity of interaction GST-NIP45 and GST-ΔN-NIP45 fusion proteins were used in pulldown assays of Jurkat cell lysates. […]

transactivation of a 3X NFAT-CAT reporter in HepG2 cells [1]: 2 fold | transactivation of a 3X NFAT-CAT reporter in HepG2 cells [2]: 3 fold | transactivation of a 3X NFAT-CAT reporter in HepG2 cells [3]: 4 fold
B1: NIP45 expressed from a NIP45 expression plasmid (other)
chain: MAEPLRGRGPRSRGGRGARRARGARGRCPRARQSPARLIPDTVLVDLVSDSDEEVLEVADPVEVPVARLPAPAKPEQDSDSDSEGAAEGPAGAPRTLVRRRRRRLLDPGEAPVVPVYSGKVQSSLNLIPDNSSLLKLCPSEPEDEADLTNSGSSPSEDDALPSGSPWRKKLRKKCEKEEKKMEEFPDQDISPLPQPSSRNKSRKHTEALQKLREVNKRLQDLRSCLSPKQHQSPALQSTDDEVVLVEGPVLPQSSRLFTLKIRCRADLVRLPVRMSEPLQNVVDHMANHLGVSPNRILLLFGESELSPTATPSTLKLGVADIIDCVVLASSSEATETSQELRLRVQGKEKHQMLEISLSPDSPLKVLMSHYEEAMGLSGHKLSFFFDGTKLSGKELPADLGLESGDLIEVWG

B2: GST-NIP45 fusion protein (bacterially expressed, full length NIP45) (other)
chain: B1 chain
notes: also called recombinant GST-NIP45; recombinant full-length NIP45; not shown: glutathione-S-transferase (GST) fusion partner
binding result [4]: no binding (tested: 25 µg of recombinant protein)
